Assay results published in patent US20090041770A1.

Target: human FcRn fused to a His-tag and glutathione S transferase (FcRn-His-GST), complex of FcRn heavy chain with beta-2-microglobulin (human) (UniProt P55899)
Assay: AlphaScreen competition

Substance	FcRn Binding ratio Variant / WT
L328Q/I332E (antibody)	4.29
L328R (antibody)	1.82
L328W (antibody)	1.35
N276D (antibody)	1.18
N276F (antibody)	1.18
N276H (antibody)	1.19
N276L (antibody)	1.21
N276R (antibody)	1.19
N276V (antibody)	1.27
N276W (antibody)	2
N286E (antibody)	2.12
N286P (antibody)	2.9
N286Y (antibody)	1.45
N325D (antibody)	1.45
N325F (antibody)	1.22
N325M (antibody)	1.43
P227E (antibody)	1.49
P227G (antibody)	1.67
P227K (antibody)	1.45
P228G (antibody)	1.77
P228K (antibody)	1.55
P228Y (antibody)	1.45
P230E (antibody)	1.01

Substance	FcRn Binding ratio Variant / WT
P230G (antibody)	1.16
P232K (antibody)	1.56
P238D (antibody)	1.03
P238E (antibody)	3.71
P238F (antibody)	2.41
P238G (antibody)	1.53
P238H (antibody)	1.46
P238I (antibody)	1.44
P238K (antibody)	5.01
P238L (antibody)	1.71
P238M (antibody)	2.33
P238N (antibody)	1.15
P238S (antibody)	1.12
P238T (antibody)	1.12
P238V (antibody)	1.43
P238W (antibody)	1.3
P271A (antibody)	1.01
P271I (antibody)	1.99
P271S (antibody)	1.14
P271T (antibody)	3.88
P271V (antibody)	1.06
P271Y (antibody)	1.48
P291H (antibody)	2.56

Substance	FcRn Binding ratio Variant / WT
P291I (antibody)	1.15
P291Q (antibody)	1.24
P329K (antibody)	1.27
P329R (antibody)	1.64
P329W (antibody)	3.16
P331F (antibody)	3.91
P331L (antibody)	1.77
P331Y (antibody)	6.06
Q295T (antibody)	3.82
Q295V (antibody)	1.19
R255E (antibody)	1.16
R255Y (antibody)	12.9
R292D (antibody)	1.67
R292E (antibody)	1.45
R292Y (antibody)	1.36
R301E (antibody)	2.92
S239D (antibody)	1.73
S239D/D265H/N297D/I332E (antibody)	1.26
S239D/E272I/I332E (antibody)	1.81
S239D/E272S/I332E (antibody)	1.49
S239D/E272Y/I332E (antibody)	1.31
